Values quoted from earlier work as cited in PMC4385930.

Columns and labels:
Bax BH3 (Homo sapiens) = Bax BH3 (Homo sapiens) (UniProt Q07812)
Bim BH3 (Homo sapiens) = Bim BH3 (Homo sapiens) (UniProt O43521)
Bak BH3 (Homo sapiens) = Bak BH3 (Homo sapiens) (UniProt Q16611)

Substance: F1L (from UniProt P24356)
- Kd (Bax BH3 (Homo sapiens)): 2 µM
- Kd (Bim BH3 (Homo sapiens)): 0.2 µM
- Kd (Bak BH3 (Homo sapiens)): 4.3 µM
